Each block holds one binder with its values, some of them ahead of it. Starred links: 1 amine or outer side, 2 acyl side, 3 side chain; linkers in the order of their positions; H or OH if unused. Non-standard residues stand in square brackets, D forms with d. No end group written: not given here. *: point of attachment. Trp(7-F) = N[C@@H](Cc1c[nH]c2c(F)cccc12)C(=O)O; Trp(7-Me) = Cc1cccc2c(C[C@H](N)C(=O)O)c[nH]c12; C20 diacid = O=C(O)CCCCCCCCCCCCCCCCCCC(=O)*; d(γGlu) = O=C(O)[C@@H](CCC(=O)[*:2])N[*:1]; C18 diacid = O=C(O)CCCCCCCCCCCCCCCCC(=O)*; γGlu = O=C(O)[C@H](CCC(=O)[*:2])N[*:1]; Palmitoyl = CCCCCCCCCCCCCCCC(=O)*; 3Pal = N[C@@H](Cc1cccnc1)C(=O)O; Nle = CCCC[C@H](N)C(=O)O; AEEA = NCCOCCOCC(=O)O; Aib = CC(C)(N)C(=O)O; βAla = NCCC(=O)O; Sar = CNCC(=O)O
Target: human GRP receptor (human, UniProt P30550 1-384)
Sequence (P30550 whole entry): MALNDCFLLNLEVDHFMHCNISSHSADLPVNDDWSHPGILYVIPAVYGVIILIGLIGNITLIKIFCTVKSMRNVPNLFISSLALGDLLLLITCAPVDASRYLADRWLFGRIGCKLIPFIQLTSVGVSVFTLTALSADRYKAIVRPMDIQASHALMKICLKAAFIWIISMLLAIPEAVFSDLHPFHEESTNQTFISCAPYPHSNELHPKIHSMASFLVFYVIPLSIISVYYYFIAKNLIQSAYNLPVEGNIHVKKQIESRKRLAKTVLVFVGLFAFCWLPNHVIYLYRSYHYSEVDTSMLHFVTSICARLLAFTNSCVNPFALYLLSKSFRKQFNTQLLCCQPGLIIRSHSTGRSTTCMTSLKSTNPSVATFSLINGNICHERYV
Test: cell-based or functional assay

hIP1 GRPR EC50: > 10000 nM
B1: Peptide 139 (peptide)
peptide: {C18 diacid}-[γGlu][AEEA][AEEA]GDHW[dA]V[dA]HL[Nle]-NH2
SMILES: CCCC[C@H](NC(=O)[C@H](CC(C)C)NC(=O)[C@H](Cc1c[nH]cn1)NC(=O)[C@@H](C)NC(=O)[C@@H](NC(=O)[C@@H](C)NC(=O)[C@H](Cc1c[nH]c2ccccc12)NC(=O)[C@H](Cc1c[nH]cn1)NC(=O)[C@H](CC(=O)O)NC(=O)CNC(=O)COCCOCCNC(=O)COCCOCCNC(=O)CC[C@H](NC(=O)CCCCCCCCCCCCCCCCC(=O)O)C(=O)O)C(C)C)C(N)=O

hIP1 GRPR EC50: 1.89 nM
B2: Peptide 149 (peptide)
peptide: {C20 diacid}-[γGlu][AEEA][AEEA]GNHWAV[dA]HL[Nle]-NH2
SMILES: CCCC[C@H](NC(=O)[C@H](CC(C)C)NC(=O)[C@H](Cc1c[nH]cn1)NC(=O)[C@@H](C)NC(=O)[C@@H](NC(=O)[C@H](C)NC(=O)[C@H](Cc1c[nH]c2ccccc12)NC(=O)[C@H](Cc1c[nH]cn1)NC(=O)[C@H](CC(N)=O)NC(=O)CNC(=O)COCCOCCNC(=O)COCCOCCNC(=O)CC[C@H](NC(=O)CCCCCCCCCCCCCCCCCCC(=O)O)C(=O)O)C(C)C)C(N)=O

hIP1 GRPR EC50: 10.7 nM
B3: Peptide 143 (peptide)
peptide: {C18 diacid}-[γGlu][AEEA][AEEA][dF]NHWAV[dA]HL[Nle]-NH2
SMILES: CCCC[C@H](NC(=O)[C@H](CC(C)C)NC(=O)[C@H](Cc1c[nH]cn1)NC(=O)[C@@H](C)NC(=O)[C@@H](NC(=O)[C@H](C)NC(=O)[C@H](Cc1c[nH]c2ccccc12)NC(=O)[C@H](Cc1c[nH]cn1)NC(=O)[C@H](CC(N)=O)NC(=O)[C@@H](Cc1ccccc1)NC(=O)COCCOCCNC(=O)COCCOCCNC(=O)CC[C@H](NC(=O)CCCCCCCCCCCCCCCCC(=O)O)C(=O)O)C(C)C)C(N)=O

hIP1 GRPR EC50: 3.55 nM
B4: Peptide 142 (peptide)
peptide: {C18 diacid}-[γGlu][AEEA][AEEA]GNHWAV[βAla]HL[Nle]-NH2
SMILES: CCCC[C@H](NC(=O)[C@H](CC(C)C)NC(=O)[C@H](Cc1c[nH]cn1)NC(=O)CCNC(=O)[C@@H](NC(=O)[C@H](C)NC(=O)[C@H](Cc1c[nH]c2ccccc12)NC(=O)[C@H](Cc1c[nH]cn1)NC(=O)[C@H](CC(N)=O)NC(=O)CNC(=O)COCCOCCNC(=O)COCCOCCNC(=O)CC[C@H](NC(=O)CCCCCCCCCCCCCCCCC(=O)O)C(=O)O)C(C)C)C(N)=O

hIP1 GRPR EC50: 5.72 nM
B5: Peptide 147 (peptide)
peptide: {C18 diacid}-[γGlu][AEEA][AEEA]GQHWAV[dA]HL[Nle]-NH2
SMILES: CCCC[C@H](NC(=O)[C@H](CC(C)C)NC(=O)[C@H](Cc1c[nH]cn1)NC(=O)[C@@H](C)NC(=O)[C@@H](NC(=O)[C@H](C)NC(=O)[C@H](Cc1c[nH]c2ccccc12)NC(=O)[C@H](Cc1c[nH]cn1)NC(=O)[C@H](CCC(N)=O)NC(=O)CNC(=O)COCCOCCNC(=O)COCCOCCNC(=O)CC[C@H](NC(=O)CCCCCCCCCCCCCCCCC(=O)O)C(=O)O)C(C)C)C(N)=O

hIP1 GRPR EC50: 4.8 nM
B6: Peptide 140 (peptide)
peptide: {C18 diacid}-[γGlu][AEEA][AEEA]FNHWAV[βAla]HL[Nle]-NH2
SMILES: CCCC[C@H](NC(=O)[C@H](CC(C)C)NC(=O)[C@H](Cc1c[nH]cn1)NC(=O)CCNC(=O)[C@@H](NC(=O)[C@H](C)NC(=O)[C@H](Cc1c[nH]c2ccccc12)NC(=O)[C@H](Cc1c[nH]cn1)NC(=O)[C@H](CC(N)=O)NC(=O)[C@H](Cc1ccccc1)NC(=O)COCCOCCNC(=O)COCCOCCNC(=O)CC[C@H](NC(=O)CCCCCCCCCCCCCCCCC(=O)O)C(=O)O)C(C)C)C(N)=O

hIP1 GRPR EC50: > 10000 nM
B7: Peptide 134 (peptide)
peptide: {C18 diacid}-[γGlu][AEEA][AEEA]GNH[Trp(7-Me)]AV[dA]HL[Nle]R-NH2
SMILES: CCCC[C@H](NC(=O)[C@H](CC(C)C)NC(=O)[C@H](Cc1c[nH]cn1)NC(=O)[C@@H](C)NC(=O)[C@@H](NC(=O)[C@H](C)NC(=O)[C@H](Cc1c[nH]c2c(C)cccc12)NC(=O)[C@H](Cc1c[nH]cn1)NC(=O)[C@H](CC(N)=O)NC(=O)CNC(=O)COCCOCCNC(=O)COCCOCCNC(=O)CC[C@H](NC(=O)CCCCCCCCCCCCCCCCC(=O)O)C(=O)O)C(C)C)C(=O)N[C@@H](CCCNC(=N)N)C(N)=O

hIP1 GRPR EC50: 488 nM
B8: Peptide 137 (peptide)
peptide: {C18 diacid}-[γGlu][AEEA][AEEA][AEEA][AEEA]GRH[Trp(7-F)]AV[dA]HL[Nle][Sar]-NH2
SMILES: CCCC[C@H](NC(=O)[C@H](CC(C)C)NC(=O)[C@H](Cc1c[nH]cn1)NC(=O)[C@@H](C)NC(=O)[C@@H](NC(=O)[C@H](C)NC(=O)[C@H](Cc1c[nH]c2c(F)cccc12)NC(=O)[C@H](Cc1c[nH]cn1)NC(=O)[C@H](CCCNC(=N)N)NC(=O)CNC(=O)COCCOCCNC(=O)COCCOCCNC(=O)COCCOCCNC(=O)COCCOCCNC(=O)CC[C@H](NC(=O)CCCCCCCCCCCCCCCCC(=O)O)C(=O)O)C(C)C)C(=O)N(C)CC(N)=O

hIP1 GRPR EC50: 5.2 nM
B9: Peptide 145 (peptide)
peptide: {C18 diacid}-[γGlu][AEEA][AEEA]RNHWAV[dA]HL[Nle]-NH2
SMILES: CCCC[C@H](NC(=O)[C@H](CC(C)C)NC(=O)[C@H](Cc1c[nH]cn1)NC(=O)[C@@H](C)NC(=O)[C@@H](NC(=O)[C@H](C)NC(=O)[C@H](Cc1c[nH]c2ccccc12)NC(=O)[C@H](Cc1c[nH]cn1)NC(=O)[C@H](CC(N)=O)NC(=O)[C@H](CCCNC(=N)N)NC(=O)COCCOCCNC(=O)COCCOCCNC(=O)CC[C@H](NC(=O)CCCCCCCCCCCCCCCCC(=O)O)C(=O)O)C(C)C)C(N)=O

hIP1 GRPR EC50: 40.5 nM
B10: Peptide 136 (peptide)
peptide: {C18 diacid}-[γGlu][AEEA][AEEA][AEEA][AEEA]GAH[Trp(7-F)]AV[dA]HL[Nle]-NH2
SMILES: CCCC[C@H](NC(=O)[C@H](CC(C)C)NC(=O)[C@H](Cc1c[nH]cn1)NC(=O)[C@@H](C)NC(=O)[C@@H](NC(=O)[C@H](C)NC(=O)[C@H](Cc1c[nH]c2c(F)cccc12)NC(=O)[C@H](Cc1c[nH]cn1)NC(=O)[C@H](C)NC(=O)CNC(=O)COCCOCCNC(=O)COCCOCCNC(=O)COCCOCCNC(=O)COCCOCCNC(=O)CC[C@H](NC(=O)CCCCCCCCCCCCCCCCC(=O)O)C(=O)O)C(C)C)C(N)=O

hIP1 GRPR EC50: 126 nM
Binder: {C20 diacid}-[γGlu][AEEA][AEEA]GNHWAV[dA]HL[Nle] [Peptide 148]

hIP1 GRPR EC50: 7.72 nM
B11: Peptide 141 (peptide)
peptide: {C18 diacid}-[γGlu][AEEA][AEEA]RRHWAV[dA]HL[Nle]-NH2
SMILES: CCCC[C@H](NC(=O)[C@H](CC(C)C)NC(=O)[C@H](Cc1c[nH]cn1)NC(=O)[C@@H](C)NC(=O)[C@@H](NC(=O)[C@H](C)NC(=O)[C@H](Cc1c[nH]c2ccccc12)NC(=O)[C@H](Cc1c[nH]cn1)NC(=O)[C@H](CCCNC(=N)N)NC(=O)[C@H](CCCNC(=N)N)NC(=O)COCCOCCNC(=O)COCCOCCNC(=O)CC[C@H](NC(=O)CCCCCCCCCCCCCCCCC(=O)O)C(=O)O)C(C)C)C(N)=O

hIP1 GRPR EC50: 3.2 nM
B12: Peptide 11 (peptide)
peptide: Palmitoyl-[d(γGlu)][AEEA][AEEA]GNHW[Aib]V[dA]HL[Nle]-NH2
SMILES: CCCCCCCCCCCCCCCC(=O)N[C@H](CCC(=O)NCCOCCOCC(=O)NCCOCCOCC(=O)NCC(=O)N[C@@H](CC(N)=O)C(=O)N[C@@H](Cc1c[nH]cn1)C(=O)N[C@@H](Cc1c[nH]c2ccccc12)C(=O)NC(C)(C)C(=O)N[C@H](C(=O)N[C@H](C)C(=O)N[C@@H](Cc1c[nH]cn1)C(=O)N[C@@H](CC(C)C)C(=O)N[C@@H](CCCC)C(N)=O)C(C)C)C(=O)O

hIP1 GRPR EC50: 279 nM
Binder: {C18 diacid}-[γGlu][AEEA][AEEA]GNHWAV[dA]HL[Nle] [Peptide 146]

hIP1 GRPR EC50: 4.09 nM
B13: Peptide 150 (peptide)
peptide: {C20 diacid}-[γGlu][AEEA][AEEA]GRHWAV[dA]HL[Nle]-NH2
SMILES: CCCC[C@H](NC(=O)[C@H](CC(C)C)NC(=O)[C@H](Cc1c[nH]cn1)NC(=O)[C@@H](C)NC(=O)[C@@H](NC(=O)[C@H](C)NC(=O)[C@H](Cc1c[nH]c2ccccc12)NC(=O)[C@H](Cc1c[nH]cn1)NC(=O)[C@H](CCCNC(=N)N)NC(=O)CNC(=O)COCCOCCNC(=O)COCCOCCNC(=O)CC[C@H](NC(=O)CCCCCCCCCCCCCCCCCCC(=O)O)C(=O)O)C(C)C)C(N)=O

hIP1 GRPR EC50: 5.99 nM
B14: Peptide 144 (peptide)
peptide: {C18 diacid}-[γGlu][AEEA][AEEA]FN[3Pal]WAV[βAla]HL[Nle]-NH2
SMILES: CCCC[C@H](NC(=O)[C@H](CC(C)C)NC(=O)[C@H](Cc1c[nH]cn1)NC(=O)CCNC(=O)[C@@H](NC(=O)[C@H](C)NC(=O)[C@H](Cc1c[nH]c2ccccc12)NC(=O)[C@H](Cc1cccnc1)NC(=O)[C@H](CC(N)=O)NC(=O)[C@H](Cc1ccccc1)NC(=O)COCCOCCNC(=O)COCCOCCNC(=O)CC[C@H](NC(=O)CCCCCCCCCCCCCCCCC(=O)O)C(=O)O)C(C)C)C(N)=O

hIP1 GRPR EC50: 81.8 nM
B15: Peptide 138 (peptide)
peptide: {C20 diacid}-[γGlu][AEEA][AEEA]GNH[Trp(7-F)]AV[dA]HL[Nle][Sar]-NH2
SMILES: CCCC[C@H](NC(=O)[C@H](CC(C)C)NC(=O)[C@H](Cc1c[nH]cn1)NC(=O)[C@@H](C)NC(=O)[C@@H](NC(=O)[C@H](C)NC(=O)[C@H](Cc1c[nH]c2c(F)cccc12)NC(=O)[C@H](Cc1c[nH]cn1)NC(=O)[C@H](CC(N)=O)NC(=O)CNC(=O)COCCOCCNC(=O)COCCOCCNC(=O)CC[C@H](NC(=O)CCCCCCCCCCCCCCCCCCC(=O)O)C(=O)O)C(C)C)C(=O)N(C)CC(N)=O

— US20260176319A1 (KALLYOPE, published 2026)
